According to PMC10681713, “RAD51 paralogs synergize with RAD51 to protect reversed forks from cellular nucleases” (Nucleic Acids Research, 2023):

What was measured:
[1] = biological target: Flag-RAD51C (of the BCDX2 complex) (human) (UniProt O43502); experiment: native MS; purified BCDX2 in 500 mM ammonium acetate pH 7.5; low activation energy for the intact complex, in-source trapping (-50 to -250 V) to dissociate it
[2] = biological target: T1, His6-XRCC2 (of the BCDX2 complex) (human, UniProt O43543 1-280); experiment: as above; conditions: both partners purified
T1 construct: human XRCC2, cDNA; a TEV cutting site stands between the tag and the gene; No TEV cleavage is described in the purification; source: Expi293F cells, transfected, co-expressed from pcDNA3.4-tetrad-BCDX2; purified as part of the complex (Ni-NTA, anti-Flag M2 agarose, Superdex 200); not shown: His6, N-terminal, kept
T1 sequence (looked up): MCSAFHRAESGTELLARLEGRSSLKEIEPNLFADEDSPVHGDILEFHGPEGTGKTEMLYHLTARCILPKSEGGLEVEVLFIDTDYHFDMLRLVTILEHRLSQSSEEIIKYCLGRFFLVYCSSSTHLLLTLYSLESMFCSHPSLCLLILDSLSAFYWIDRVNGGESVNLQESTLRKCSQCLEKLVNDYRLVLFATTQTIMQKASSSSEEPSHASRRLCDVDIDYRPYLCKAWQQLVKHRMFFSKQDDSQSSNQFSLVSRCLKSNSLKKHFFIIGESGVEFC

CX3 (RAD51C-XRCC3) = biological target: T2, CX3 (RAD51C-XRCC3) (Homo sapiens, UniProt O43502;O43542 1-376;1-346); experiment: EMSA; 1 mM ATP, 58 nM DNA; Buffer E (composition not in the material), 37 °C, 10 min; paralogs: 50 mM KCl, 1 mM ATP, 0.8% agarose gel; RAD51: 100 mM KCl, 2 mM ATP, 6% TBE-PAGE; conditions: protein: recombinant, tags: N-terminal His6-Flag on RAD51C, copies: 1;1, 25 bp duplex
T2 sequence 1: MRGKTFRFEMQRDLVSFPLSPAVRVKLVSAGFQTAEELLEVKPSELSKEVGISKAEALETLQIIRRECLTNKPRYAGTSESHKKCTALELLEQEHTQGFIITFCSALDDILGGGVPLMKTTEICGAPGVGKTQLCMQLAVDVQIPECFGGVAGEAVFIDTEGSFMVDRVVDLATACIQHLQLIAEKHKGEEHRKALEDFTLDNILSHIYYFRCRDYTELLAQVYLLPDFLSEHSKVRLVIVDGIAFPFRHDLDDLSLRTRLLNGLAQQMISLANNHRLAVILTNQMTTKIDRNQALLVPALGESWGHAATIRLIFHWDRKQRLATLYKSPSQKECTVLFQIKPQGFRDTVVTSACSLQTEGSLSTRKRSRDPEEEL
T2 sequence 2: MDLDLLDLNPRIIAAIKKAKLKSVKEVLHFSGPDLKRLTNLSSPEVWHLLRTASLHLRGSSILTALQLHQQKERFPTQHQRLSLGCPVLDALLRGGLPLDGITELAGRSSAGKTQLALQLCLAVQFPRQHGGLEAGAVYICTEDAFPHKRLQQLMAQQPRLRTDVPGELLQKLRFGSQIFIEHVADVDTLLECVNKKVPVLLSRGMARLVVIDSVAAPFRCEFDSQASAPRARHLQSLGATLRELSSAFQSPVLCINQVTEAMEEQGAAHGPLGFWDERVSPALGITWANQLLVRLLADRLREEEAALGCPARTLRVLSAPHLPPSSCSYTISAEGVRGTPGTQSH

[3] = biological target: T3, BCDX2 (RAD51B-RAD51C-RAD51D-XRCC2) (Homo sapiens, UniProt O15315;O43502;O75771;O43543 1-384;1-376;1-328;1-280); experiment: as above; conditions: protein: recombinant, tags: N-terminal Flag on RAD51C, N-terminal His6 on XRCC2, TEV sites, copies: 1;1;1;1
T3 sequence 1: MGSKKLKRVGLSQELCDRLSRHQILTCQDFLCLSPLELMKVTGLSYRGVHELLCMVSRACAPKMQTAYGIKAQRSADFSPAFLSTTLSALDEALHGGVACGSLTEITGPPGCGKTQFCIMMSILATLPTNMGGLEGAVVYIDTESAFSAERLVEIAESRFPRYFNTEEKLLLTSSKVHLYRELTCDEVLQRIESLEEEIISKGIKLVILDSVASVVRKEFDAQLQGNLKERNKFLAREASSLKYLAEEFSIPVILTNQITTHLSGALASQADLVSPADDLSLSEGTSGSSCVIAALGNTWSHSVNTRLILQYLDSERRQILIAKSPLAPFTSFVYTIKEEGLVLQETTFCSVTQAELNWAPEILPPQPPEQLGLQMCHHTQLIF
T3 sequence 2: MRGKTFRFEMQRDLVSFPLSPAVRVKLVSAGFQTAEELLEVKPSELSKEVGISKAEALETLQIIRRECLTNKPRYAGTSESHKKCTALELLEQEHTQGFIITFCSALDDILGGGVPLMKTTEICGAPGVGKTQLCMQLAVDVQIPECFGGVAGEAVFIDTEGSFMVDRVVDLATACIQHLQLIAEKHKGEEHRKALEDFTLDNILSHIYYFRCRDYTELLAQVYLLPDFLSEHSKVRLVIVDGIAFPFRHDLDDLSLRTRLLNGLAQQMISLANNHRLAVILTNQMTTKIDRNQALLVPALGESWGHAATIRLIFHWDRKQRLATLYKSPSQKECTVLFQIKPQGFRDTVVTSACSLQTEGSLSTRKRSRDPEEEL
T3 sequence 3: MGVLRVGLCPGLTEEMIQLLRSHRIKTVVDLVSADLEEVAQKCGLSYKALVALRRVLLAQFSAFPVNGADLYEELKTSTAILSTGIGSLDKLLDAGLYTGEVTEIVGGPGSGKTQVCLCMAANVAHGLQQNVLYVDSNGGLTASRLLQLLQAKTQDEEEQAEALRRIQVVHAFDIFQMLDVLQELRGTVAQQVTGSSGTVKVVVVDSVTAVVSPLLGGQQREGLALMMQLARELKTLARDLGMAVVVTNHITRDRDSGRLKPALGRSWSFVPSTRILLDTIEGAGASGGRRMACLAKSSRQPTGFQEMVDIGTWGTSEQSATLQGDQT
T3 sequence 4: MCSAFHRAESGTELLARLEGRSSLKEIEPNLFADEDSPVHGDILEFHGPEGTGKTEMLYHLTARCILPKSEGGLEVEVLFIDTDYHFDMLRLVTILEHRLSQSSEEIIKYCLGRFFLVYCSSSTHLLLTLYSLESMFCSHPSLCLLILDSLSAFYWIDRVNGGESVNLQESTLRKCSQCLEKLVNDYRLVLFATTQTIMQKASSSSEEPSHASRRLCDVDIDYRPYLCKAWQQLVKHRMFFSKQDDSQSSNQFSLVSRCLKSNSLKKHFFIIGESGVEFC

## RAD51B (from UniProt O15315 1-384) (natural protein)
[1]
  stoichiometry N: 1

B1: RAD51D (natural protein, human, UniProt O75771 1-328, looked up)
chain: MGVLRVGLCPGLTEEMIQLLRSHRIKTVVDLVSADLEEVAQKCGLSYKALVALRRVLLAQFSAFPVNGADLYEELKTSTAILSTGIGSLDKLLDAGLYTGEVTEIVGGPGSGKTQVCLCMAANVAHGLQQNVLYVDSNGGLTASRLLQLLQAKTQDEEEQAEALRRIQVVHAFDIFQMLDVLQELRGTVAQQVTGSSGTVKVVVVDSVTAVVSPLLGGQQREGLALMMQLARELKTLARDLGMAVVVTNHITRDRDSGRLKPALGRSWSFVPSTRILLDTIEGAGASGGRRMACLAKSSRQPTGFQEMVDIGTWGTSEQSATLQGDQT
notes: No tag is described on this chain; also called D (in BCDX2 and DX2); source: Expi293F cells, transfected, co-expressed with the other paralogs from one plasmid; purified as part of the complex (Ni-NTA, anti-Flag M2 agarose, Superdex 200)
[2]
  stoichiometry N: 1

B2: 5' overhang DNA (oligo 7 + oligo 8) (mixed)
DNA 1: GGGTGAACCTGCAGGTGGGCAAAGA
DNA 2: ACGCTGCCGAATTCTACCAGTGCCTTGCTAGGACATCTTTGCCCACCTGCAGGTTCACCC
modifications: oligo 8: phosphorothioate bonds at both ends (first 5 and last 5 linkages)
CX3 (RAD51C-XRCC3); label: 5' Cy3 on oligo 7, 5' overhang 35 nt on strand 2
  binding result: binds
[3]; label: 5' Cy3 on oligo 7, 25 bp duplex, 5' overhang 35 nt on strand 2
  binding result: binds

B3: 3' overhang DNA (oligo 9 + oligo 8) (mixed)
DNA 1: AGGCACTGGTAGAATTCGGCAGCGT
DNA 2: ACGCTGCCGAATTCTACCAGTGCCTTGCTAGGACATCTTTGCCCACCTGCAGGTTCACCC
modifications: oligo 8: phosphorothioate bonds at both ends (first 5 and last 5 linkages)
CX3 (RAD51C-XRCC3); label: 3' Cy3 on oligo 9, 3' overhang 35 nt on strand 2
  binding result: binds
[3]; label: 3' Cy3 on oligo 9, 25 bp duplex, 3' overhang 35 nt on strand 2
  binding result: binds

B4: dsDNA 55 bp (oligo 13 + oligo 14) (dsDNA)
DNA 1: TTAGAGCTTAATTGCTGAATCTGGTGCTGTGGGTGAACCTGCAGGTGGGCAAAGA
DNA 2: TCTTTGCCCACCTGCAGGTTCACCCACAGCACCAGATTCAGCAATTAAGCTCTAA
[3]; label: 5' Cy3 on oligo 13, blunt
  binding result: no binding
